Data as given in article PMC5426288, “Crystal structure of thermostable alkylsulfatase SdsAP from Pseudomonas sp. S9” (Bioscience Reports, 2017).

Experiments:
[1] = target: the molecule itself; assay: crystal structure; SdsAP at 27.5 mg/ml, sitting drop vapor diffusion at 293 K, 0.1 M sodium acetate pH 4.5, 0.05 M magnesium acetate, 20% PEG 4000; two monomers in the asymmetric unit; 1.76 Å
[2] = substrate: CCCCCCCCCCCCOS(=O)(=O)O; assay: isothermal titration calorimetry, enzyme rate assay; type: biochemical, Pseudomonas sp.; conditions: 25 °C, 25 mM Tris/HCl pH 8.0, 200 mM NaCl, 25 nM enzyme

B1: alkylsulfatase SdsAP from Pseudomonas sp. S9 (enzyme, UniProt F2WP51 42-674, looked up)
chain: AETAKPATDATKAANDALLKELPFDDKTSFDLAHKGFIAPLPAEPIKGEKGNMIWDPSKYGFIKEGEAAPDTTNPSLWRQSQLINISGLFEVTDGIYQVRNYDLSNMTIVEGKDGITIFDPLISQETAKAALDLYYKHRPKKPVVAVIYTHSHVDHYGGVRGVVDEADVKAGKVKIYAPLGFLEHAVAENVMAGTAMSRRASYMYGNLLPPDAKGQLGAGLGTTTSAGTVTLIPPTDIIKETGETHVIDGLTYEFMYAPGSEAPAEMLYYIKEKKALNAAEDSTHTLHNTYSLRGAKIRDPLAWSKYLNEALKLWGDDVQVMYAMHHWPVWGNKEVREQLSLQRDMYRYINDETLRLANKGYTMTEIAEQVKLPKKIATKFSNRGYYGSLNHNVKATYVLYLGWFIGNPATLWELPPADKAKRYVEMMGGADAVLKKAKEYYDKGDFRWVAEVVNHVVFAEPNNQAAKNMQADALEQLGYQAESGPWRNFYLTGAQELRNGVQQLPTPDTASPDTVKAMDLDLFFDFLAMRLKGPDVADKHITLNLDFTDLKQKYTLEMVNGVLNHTEGMQAKNADATVTLTRETLNNVMLKQTTLKDAESSGDIKIEGDKGKLEELMSYMDNFDFWFNIVTP
notes: SdsAP, type III alkylsulfatase of Pseudomonas sp; S9 (F2WP51); N-terminal signal peptide of 41 amino acids truncated; domains in the structure: 42-401 metallo-beta-lactamase like, 402-543 dimerization, 544-674 SCP-2-like; that this removes the His tag is inferred; source: E. coli BL21 (DE3), purified (IMAC, thrombin digestion, Mono Q, Superdex 200)
stoichiometry N [1]: 2 | Km [2]: 74.2 ± 10 µM | kcat [2]: 4.88 ± 0.17 s⁻¹
